Assay results published in article PMC10400579, “FDW028, a novel FUT8 inhibitor, impels lysosomal proteolysis of B7-H3 via chaperone-mediated autophagy pathway and exhibits potent efficacy against metastatic colorectal cancer” (Cell Death & Disease, 2023).

What was measured:
[1] = immunoblot of B7-H3, SW480 and HCT-8; settings: glycan changed form; control: control siRNA / untreated cells
[2] = immunofluorescence colocalization, Pearson's R; settings: glycan changed form; control: control siRNA / untreated cells
[3] = CHX chase, B7-H3 remaining by immunoblot; settings: glycan changed form; control: control siRNA
[4] = cell surface biotinylation, membrane-fraction immunoblot; settings: glycan changed form; control: control siRNA

| Protein | expression_or_secretion [1] | localisation_or_trafficking [2] | degradation_or_half_life [3] | expression_or_secretion [4] |
| --- | --- | --- | --- | --- |
| B7-H3 (CD276): FDW028 (FUT8 inhibitor) (protein) parent chain: MLRRRGSPGMGVHVGAALGALWFCLTGALEVQVPEDPVVALVGTDATLCCSFSPEPGFSLAQLNLIWQLTDTKQLVHSFAEGQDQGSAYANRTALFPDLLAQGNASLRLQRVRVADEGSFTCFVSIRDFGSAAVSLQVAAPYSKPSMTLEPNKDLRPGDTVTITCSSYQGYPEAEVFWQDGQGVPLTGNVTTSQMANEQGLFDVHSILRVVLGANGTYSCLVRNPVLQQDAHSSVTITPQRSPTGAVEVQVPEDPVVALVGTDATLRCSFSPEPGFSLAQLNLIWQLTDTKQLVHSFTEGRDQGSAYANRTALFPDLLAQGNASLRLQRVRVADEGSFTCFVSIRDFGSAAVSLQVAAPYSKPSMTLEPNKDLRPGDTVTITCSSYRGYPEAEVFWQDGQGVPLTGNVTTSQMANEQGLFDVHSVLRVVLGANGTYSCLVRNPVLQQDAHGSVTITGQPMTFPPEALWVTVGLSVCLIALLVALAFVCWRKIKQSCEEENAGAEDQDGEGEGSKTALQPLKHSDSKEDDGQEIA | decreases | increases |  |  |
| B7-H3 (CD276): FUT8 siRNA (protein) parent chain: MLRRRGSPGMGVHVGAALGALWFCLTGALEVQVPEDPVVALVGTDATLCCSFSPEPGFSLAQLNLIWQLTDTKQLVHSFAEGQDQGSAYANRTALFPDLLAQGNASLRLQRVRVADEGSFTCFVSIRDFGSAAVSLQVAAPYSKPSMTLEPNKDLRPGDTVTITCSSYQGYPEAEVFWQDGQGVPLTGNVTTSQMANEQGLFDVHSILRVVLGANGTYSCLVRNPVLQQDAHSSVTITPQRSPTGAVEVQVPEDPVVALVGTDATLRCSFSPEPGFSLAQLNLIWQLTDTKQLVHSFTEGRDQGSAYANRTALFPDLLAQGNASLRLQRVRVADEGSFTCFVSIRDFGSAAVSLQVAAPYSKPSMTLEPNKDLRPGDTVTITCSSYRGYPEAEVFWQDGQGVPLTGNVTTSQMANEQGLFDVHSVLRVVLGANGTYSCLVRNPVLQQDAHGSVTITGQPMTFPPEALWVTVGLSVCLIALLVALAFVCWRKIKQSCEEENAGAEDQDGEGEGSKTALQPLKHSDSKEDDGQEIA | decreases | increases | decreases | decreases |
